For one series, the target named is T1, human C1q (human, UniProt P02745 23-245; P02746 28-253; P02747 29-245).
T1 construct: Bought human C1q; also called first component of the classical complement cascade
As to the kind of experiment: ELISA, antibody coated, bound C1q detected with rabbit anti-human C1q. The method, then:
In short, microtiter ELISA plates (Greiner, Germany) were coated overnight at RT with the test antibodies serially diluted from 10 μg/ml to 0.06 μg/ml in PBS. Plates were emptied and wells were blocked with 200 μl ELISA-diluent per well (0.1 M NaPO₄, 0.1 M NaCl, 0.1% gelatin and 0.05% Tween-20), at RT for 30 minutes. […] After washing the plates (3×) with PBST, wells were incubated with HRP-conjugated swine anti-rabbit IgG-Fc (DAKO, P0300, lot #069) diluted in ELISA diluent (1:2500, 100 μl/well, RT, 1 hour). Thereafter, plates were washed thrice and assays were developed with freshly prepared 1 mg/ml ABTS solution (ABTS: 2,2′-azino-bis[3-ethylbenzthiazoline-6-sulfonic acid]); 2 tablets of 5 mg in 10 ml ABTS buffer, Boehringer Mannheim, Ingelheim, Germany) at RT in the dark for 30 minutes. Absorbance was measured at 405 nm in an ELISA plate reader (Biotek Instruments Inc., Winooski, USA).
On the technique in general: An ELISA detects its analyte on a solid surface through an enzyme-linked reagent.

Series [1] deals with the molecule itself. In words: gel filtration on Superdex 200 (eluted at about 70 kD); self-association of half-molecules.
Procedure: Samples (100 μl) were applied to a Superdex 200 HR 10/30 column (Amersham Biosciences, Uppsala, Sweden), which was connected to a HPLC system (ÄKTA explorer) from Amersham Biosciences, Uppsala, Sweden. The column was first equilibrated in PBS. Fractions of 250 μl were collected, in which Bet v 1 specific IgG was measured using the antigen binding assay.
To test the antigen binding of the Bet v 1 specific antibodies, a sample of diluted antibody was incubated overnight at room temperature with 0.75 mg Protein-G sepharose (Amersham Biosciences, Uppsala, Sweden) in 750 μl PBS/AT (PBS supplemented with 0.3% BSA, 0.1% Tween-20, 0.05% NaN3) together with 50 μl diluted ¹²⁵I-labelled Bet v 1 or ¹²⁵I-labelled Fel d 1. […] After washing the Sepharose suspension with PBS-T (PBS supplemented with 0.1% Tween-20), the bound radioactivity was measured. The results were expressed as the amount of radioactivity relative to the amount added.

Experimental findings from patent publication US20100255012A1 (Genmab, published 2010) are described below.

T1 sequence (P02745 23-245 limits assumed, chain 1 of 3): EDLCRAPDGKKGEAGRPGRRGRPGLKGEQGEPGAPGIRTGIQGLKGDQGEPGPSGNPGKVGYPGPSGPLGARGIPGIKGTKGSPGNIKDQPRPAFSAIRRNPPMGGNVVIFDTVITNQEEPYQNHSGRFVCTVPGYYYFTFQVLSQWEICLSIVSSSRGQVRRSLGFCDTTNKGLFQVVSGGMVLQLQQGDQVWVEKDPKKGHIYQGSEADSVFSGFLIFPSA
T1 sequence (P02746 28-253 limits assumed, chain 2 of 3): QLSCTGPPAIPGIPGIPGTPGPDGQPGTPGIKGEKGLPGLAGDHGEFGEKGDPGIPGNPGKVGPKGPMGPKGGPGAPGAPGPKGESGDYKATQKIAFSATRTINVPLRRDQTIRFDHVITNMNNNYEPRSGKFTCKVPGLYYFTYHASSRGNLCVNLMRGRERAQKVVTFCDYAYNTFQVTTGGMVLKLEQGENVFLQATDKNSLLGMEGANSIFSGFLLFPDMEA
T1 sequence (P02747 29-245 limits assumed, chain 3 of 3): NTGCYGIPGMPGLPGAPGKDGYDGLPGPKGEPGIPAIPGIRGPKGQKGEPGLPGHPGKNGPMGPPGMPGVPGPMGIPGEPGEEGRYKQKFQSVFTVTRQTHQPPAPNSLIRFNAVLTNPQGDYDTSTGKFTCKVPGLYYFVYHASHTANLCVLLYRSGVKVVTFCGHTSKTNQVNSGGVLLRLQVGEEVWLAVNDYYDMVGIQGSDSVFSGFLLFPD

B1: 7D8-HG (antibody)
heavy: EVQLVESGGGLVQPDRSLRLSCAASGFTFHDYAMHWVRQAPGKGLEWVSTISWNSGTIGYADSVKGRFTISRDNAKNSLYLQMNSLRAEDTALYYCAKDIQYGNYYYGMDVWGQGTTVTVSSASTKGPSVFPLAPCSRSTSESTAALGCLVKDYFPEPVTVSWNSGALTSGVHTFPAVLQSSGLYSLSSVVTVPSSSLGTKTYTCNVDHKPSNTKVDKRVAPEFLGGPSVFLFPPKPKDTLMISRTPEVTCVVVDVSQEDPEVQFNWYVDGVEVHNAKTKPREEQFNSTYRVVSVLTVLHQDWLNGKEYKCKVSNKGLPSSIEKTISKAKGQPREPQVYTLPPSQEEMTKNQVSLTCLVKGFYPSDIAVEWESNGQPENNYKTTPPVLDSDGSFFLYSRLTVDKSRWQEGNVFSCSVMHEALHNHYTQKSLSLSLGK
light: not shown
notes: Half-molecule of one heavy and one light chain; also called HuMab 7D8-HG; hingeless IgG4 anti-CD20
Turning to B1, in the series with human C1q, the binding result is recorded as “no binding”.

B2: Betv1-HG (antibody, V domains shown)
VH: EVQLQQSGAELVKPGASVKLSCTASGFNIKDTYIHWVKQRPEQGLEWVGRIDPATGNTRYDPKFQGKATITADTSSNTAYLQLSSLTSEDTAVYYCASFRPGYALDYWGQGTSVTVSS
VL: DIVMTQSHKFMSTSVGDRVSFTCKASQDVFTAVAWYQQKPGQSPKLLIYWASTRRTGVPDRFTGSGSGTDYTLTISSVQAEDLALYYCQQHFSTPPTFGGGTKLEIKR
notes: Half-molecule of one heavy and one light chain; also called anti-Betv1-HG; hingeless IgG4 anti-Bet v 1
As to B2, the binding result in series [1] is recorded as “no binding”.
